Reference: patent publication US20220332836A1, “A METHOD FOR PREVENTING HUMAN VIRUS ASSOCIATED DISORDERS IN PATIENTS” (NOVARTIS AG, priority 2019, published 2022)

Experiments:
[1] = system: Fcγ receptors (including CD16); test: Fcγ receptor binding
non-human primate CD40 = test: Binding to non-human primate CD40
Experimental: (§1) mAb1 binds to human CD40 with high affinity (Kd of 0.3 nM).

CD40 [2] = target: T1, CD40 (Homo sapiens, UniProt P25942); test: Phase 1 single-ascending dose study in healthy subjects and rheumatoid arthritis patients; format: in vivo; settings: for safety and tolerability: interim
T1 construct: CD40 occupancy on peripheral B cells measuring free CD40 and total CD40; endogenous in cells; host or cells: peripheral / whole blood B cells of healthy subjects and rheumatoid arthritis patients (in vivo)
Experimental: The safety, tolerability, PK and PD activity of mAb1 are being assessed in an ongoing, randomized, double-blind, placebo-controlled, single-ascending dose study of mAb1 in healthy subjects and patients with rheumatoid arthritis (RA). A total of 48 subjects have been enrolled: 36 healthy subjects who received single doses of mAb1 up to 3 mg/kg IV or S.C., and 12 patients with RA, 6 of whom received single doses of mAb1 at 10 mg/kg IV. […] An investigation of the 30 mg/kg IV dose is ongoing in RA patients. As this study is still ongoing, all clinical data are preliminary in nature and based on interim analyses conducted up to a dose of 10 mg/kg in RA patients.
In healthy subjects as well as in patients with rheumatoid arthritis, after single IV or SC administration, CFZ533 PK profiles were consistent with target mediated disposition resulting in non-linear PK profiles and more rapid clearance when CD40 receptor occupancy dropped below approximately 90%. […]

CD40 [3] = system: CD40; set-up: species or system cynomolgus monkeys; settings: cynomolgus monkey, in vivo
Experimental: In a PK/PD study in cynomolgus monkeys, the inflection point (about 10 μg/mL) in the PK profiles was associated with a drop of CD40 saturation, as determined in an independent lymphocyte target saturation assay. As such this inflection point is viewed as a marker for the level of saturation of CD40, and an evidence for target engagement. […] Monkeys were immunized with KLH three times (the first was about 3 weeks prior to dosing, the second was 2 weeks after mAb1 administration, and the third was after complete wash-out of mAb1). […]

EBV infections = test: Clinical kidney transplantation data; format: in vivo, human; settings: CNI-free therapy in kidney transplantation
CD40 [4] = target: T1, CD40; test: CD40 receptor occupancy and CD154-induced CD69 expression in human whole blood cultures; format: cell-based; settings: CD20 positive B cells
Source text: In addition, mAb1 can disrupt established germinal centers (GCs) in vivo. The CD40 receptor occupancy and functional activity were simultaneously assessed in vitro using human whole blood cultures. Functional activity was quantified via CD154-induced expression of CD69 (the activation marker) on CD20 positive cells (B cells) and CD40 occupancy was monitored using fluorescently labeled mAb1.

[5] = in vivo
Experimental: (§2) Inflammatory lesions in the kidneys and lungs of 2 animals at 50 mg/kg were noted, and in one of the two animals, lesions in the eyes and trachea were also noted. […] In view of these inflammatory findings, the No Observed Adverse Effect Level (NOAEL) for the 13-week toxicity study was set at 10 mg/kg. […] The NOAEL derived from the 26-week cynomolgus monkey study is considered the most relevant for supporting the clinical dosing regimen.

[6] = system: antibody-dependent cellular cytotoxicity or complement-dependent cytotoxicity; test: ADCC / CDC mediation; format: cell-based
Experimental: Currently, CFZ533/Iscalimab is in clinical development for inhibition of transplant organ rejection and therapy for autoimmune diseases.
as §1

[7] = 13-week GLP rhesus monkey toxicity study; format: in vivo
Experimental: as §2
Adequate safety margin from preclinical toxicological studies: GLP toxicology studies to date have tested CFZ533 at (i) weekly s.c. dosing for 13 weeks at 10, 50, and 150 mg/kg (s.c. and i.v.) in rhesus monkeys, and (ii) weekly s.c. dosing for 26 weeks at 1, 50, and 150 mg/kg in cynomolgus monkeys.

[8] = system: EBV-seronegative EBV-B cell/T cell co-cultures; test: EBV-B cell/T cell co-culture, EBV-seronegative donors; format: cell-based, human
[9] = in vivo; remark: listed apart in the source
kidney allografts = settings: cited from earlier work
[10] = single dose of 3 mg/kg (IV and SC)
[11] = 10 μg/mL (priming only; priming and recall) and 50 μg/mL (recall only)

T1 sequence (P25942 21-277): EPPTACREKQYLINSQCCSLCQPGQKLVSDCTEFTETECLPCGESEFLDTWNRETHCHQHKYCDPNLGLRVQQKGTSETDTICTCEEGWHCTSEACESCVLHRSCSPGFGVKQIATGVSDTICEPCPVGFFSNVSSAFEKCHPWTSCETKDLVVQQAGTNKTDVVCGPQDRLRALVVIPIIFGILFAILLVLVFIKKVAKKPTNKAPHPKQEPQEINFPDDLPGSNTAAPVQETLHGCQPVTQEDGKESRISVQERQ

**Q.** Which results are given for “CFZ533: fully human monoclonal Fc-silent, non-depleting anti-CD40 antibody (IgG1/K); heavy chain SEQ ID NO: 9, light chain SEQ ID NO: 10”?
**A.** binding to Fcγ receptors (including CD16) [1]: does not bind; affinity for human and non-human primate CD40 (non-human primate CD40): very similar affinities; disposition in Chinese subjects versus non-Chinese subjects (CD40 [2]; 3 mg/kg IV): generally similar; duration of target engagement (CD40 [2]; 3 mg/kg IV): about 4 weeks; duration of target engagement (CD40 [2]; 3 mg/kg SC): about 4 weeks; time of peak plasma concentration post-dose (CD40 [2]; 3 mg/kg SC, healthy subjects): 3 days; duration of full CD40 occupancy (CD40 [2]; 10 mg/kg IV, rheumatoid arthritis patients): 8 weeks; duration of target engagement (CD40 [2]; 30 mg/kg IV, rheumatoid arthritis patients): 16 weeks; decrease in total CD40 on peripheral B cells (CD40 [2]; healthy subjects): about 50%; rCD154-induced CD69 expression on B cells (CD40 [2]; human whole blood, during full CD40 occupancy): generally suppressed; extent of exposure (AUClast) versus dose (CD40 [2]; human, in vivo): increased more than the increase in dose; plasma concentration associated with full (>90%) CD40 occupancy on whole blood B cells (CD40 [2]; human, in vivo): 0.3 to 0.4 µg/mL; decrease in total CD40 on peripheral B cells (CD40 [2]; patients with rheumatoid arthritis): not confirmed; safety and tolerability (CD40 [2]; single 10 mg/kg, RA patients): safe and well tolerated; CD40 receptor occupancy below which clearance is more rapid (CD40 [2]; single IV or SC administration): approximately 90%; safety in Phase 1 study CCFZ533×2101 (CD40 [2]; single ascending doses 0.03 to 30 mg/kg i.v. and 3 mg/kg s.c.): did not reveal major safety concern; anti-KLH responses to the first KLH immunization (CD40 [2]; [10]): transiently suppressed; duration of full (>90%) receptor occupancy with anti-KLH suppression (CD40 [2]; [10]): 3-4 weeks; safety and tolerability (CD40 [2]; single doses up to 3 mg/kg, healthy volunteers): safe and well tolerated; inflection point in the PK profiles (drop of CD40 saturation) (CD40 [3]): about 10 μg/mL; increased incidence of EBV infections (EBV infections): not observed; CD40 occupancy required for full inhibition of rCD154-induced CD69 expression (CD40 [4]): Almost complete; organ toxicities [5]: did not reveal any significant organ toxicities; thromboembolic events [5]: no evidence of thromboembolic events; mediation of ADCC or CDC ([6]; listed as CFZ533/Iscalimab): incapable of mediating; mediation of ADCC or CDC ([6]; listed as mAb1): does not; No Observed Adverse Effect Level (NOAEL) ([7]; 13-week toxicity study): 10 mg/kg; major toxicology findings ([7]; weekly dosing 13 weeks at 10, 50, 150 mg/kg): did not reveal any major finding; CD4+ T cell proliferation [8, 11]: slight not significant increase; CD8+ T cell proliferation [8, 11]: slight not significant increase; CD4+ T cell proliferation ([8]; 10-200 μg/mL, all three conditions): no effects; CD3+ T cell proliferation ([8]; 10-200 μg/mL, priming, recall, priming and recall, 11 days): no reducing effect; CD8+ T cell proliferation ([8]; all tested concentrations): no major effects; inflection point of non-linear serum concentration-time profiles [9]: 10 to 20 µg/mL; peripheral B cell depletion (kidney allografts; in vivo): no significant peripheral B cell depletion; survival of kidney allografts (kidney allografts; non-human primates): can prolong survival
